# Test results published in IntAct's records for PubMed 26237645.
# B1: Fumarate hydratase, mitochondrial (Homo sapiens), P07954 (parent)
# chain: MYRALRLLARSRPLVRAPAAALASAPGLGGAAVPSFWPPNAARMASQNSFRIEYDTFGELKVPNDKYYGAQTVRSTMNFKIGGVTERMPTPVIKAFGILKRAAAEVNQDYGLDPKIANAIMKAADEVAEGKLNDHFPLVVWQTGSGTQTNMNVNEVISNRAIEMLGGELGSKIPVHPNDHVNKSQSSNDTFPTAMHIAAAIEVHEVLLPGLQKLHDALDAKSKEFAQIIKIGRTHTQDAVPLTLGQEFSGYVQQVKYAMTRIKAAMPRIYELAAGGTAVGTGLNTRIGFAEKVAAKVAALTGLPFVTAPNKFEALAAHDALVELSGAMNTTACSLMKIANDIRFLGSGPRSGLGELILPENEPGSSIMPGKVNPTQCEAMTMVAAQVMGNHVAVTVGGSNGHFELNVFKPMMIKNVLHSARLLGDASVSFTENCVVGIQANTERINKLMNESLMLVTALNPHIGYDKAAKIAKTAHKNGSTLKETAIELGYLTAEQFDEWVKPKDMLGPK
# Variants of: B1
# Conditions: with h2az_human H2AZ1, P0C0S5
# Chain of h2az_human H2AZ1, P0C0S5 (P0C0S5 whole entry): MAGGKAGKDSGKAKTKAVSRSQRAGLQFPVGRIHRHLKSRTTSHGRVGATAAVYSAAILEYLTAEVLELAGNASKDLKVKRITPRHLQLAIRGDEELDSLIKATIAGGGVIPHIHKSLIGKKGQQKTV
row,effect of a mutation on the interaction,Variant
1,disrupting interaction strength,T236A
2,increasing interaction strength,T236D

# Variants of: B1
# Conditions: with h2az_human H2AZ1, P0C0S5
# Remark: another data set of the same source
row,effect of a mutation on the interaction,Variant
1,decreasing interaction strength,T236A
